{"source": "the nanobody polyreactivity screen of Harvey et al. (2022)"}
{"assay": "yeast display, Sf9 membrane polyspecificity reagent, FACS + sequencing; frameworks hold sequencing errors", "outline": "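Polyreactivity labels are assigned by the sorting gate from which each nanobody was recovered. The gates were low and high (top ~1%), set on anti-HA fluorescence for expression and streptavidin fluorescence for reagent binding. Before sorting, galactose-induced (36–48 hours) yeast display cells were stained for 1 hour at 4 °C with 10% biotinylated, detergent-solubilized Sf9 membrane reagent.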"}
{"sequence": "QVQLVESGGGLVQAGGSLRLSCAATGSIFSYYDMAWYRQAPGNERELVAGISRGGSTNYADSVKGRFTISRDNGKNTVYLQMNSLKEEDTAVYYCNADQSSRTYPFRRSRRSWLYGYWGQGTQVTVSS", "polyreactivity (PSR sort gate)": "low polyreactivity"}
{"sequence": "QVQLVESGGGLVQAGGSLRLSCAATGSIFWVNGMGWYRQAPGKERELVAAITWSGGSTYYADSVKGRFTISRDNAKNTVYLQMNSLKPEDTAVYYCADYGQYYLWDGYGYWGQGTQVTVSS", "polyreactivity (PSR sort gate)": "low polyreactivity"}
{"sequence": "QVQLVESGGGLVQAGGSLRLSCAATGSIFYHYAMGWYRQAPGKERELVAAISGSGGSTYYADSVKGRFTISRDNAKNTVYLQMNSLKPEDTAVYYCAADTSRYHYSRYFFDSDYWGQGTQVTVSS", "polyreactivity (PSR sort gate)": "low polyreactivity"}
{"sequence": "QVQLVESGGGLVQAGGSLRLSCAATGSIINRYVMGWYRQAPGKEREFVAAIRNTGGSTYYADSVKGRFTISRDNAKNTVYLQMNSLKPEDPAVYYCAAVYRSAYDGLDHGYRRHDYWGQGTQVTVSS", "polyreactivity (PSR sort gate)": "high polyreactivity"}
{"sequence": "QVQLVESGGGLVQAGGSLRLSCAATGSIISVNTMGWYRQAPGKERELVATIRTGDSTNYADSVKGRFTISRDNAKYTVYLQMNSLKPEDTAVYYCAAEWSSLNFDYWGQGTQVTVSS", "polyreactivity (PSR sort gate)": "low polyreactivity"}
{"sequence": "QVQLVESGGGLVQAGGSLRLSCAATGSIVYSNTMGWYRQSPGKERELVAAISTSDTSTYYADSVKGRFTISRDNGKNTVYLQMNSLKPQDTAVYYCNAVCSIVLYGYWGQGTQVTVSS", "polyreactivity (PSR sort gate)": "low polyreactivity"}
{"sequence": "QVQLVESGGGLVQAGGSLRLSCAATGSTFARYAMGWSRQAPGKERELVAAISRRGGSTYYADSVTGRFTLSRDNAKNTVYLQMNSLNQEDTAVDSCAARYGIISSFEYDYWGQGTQVTVSS", "polyreactivity (PSR sort gate)": "high polyreactivity"}
{"sequence": "QVQLVESGGGLVQAGGSLRLSCAATGSTFATNAMGWYKQAPGKEREFVAAISRRGGRTYYADSVKGRFTISRDNAKNTVYLKMNSVKPEDTAVYYCNTLRVGWGQGTQVTVSS", "polyreactivity (PSR sort gate)": "high polyreactivity"}
{"sequence": "QVQLVESGGGLVQAGGSLRLSCAATGSTFGGNAMGWYRQAPGKERELVAAISSSGGSTYYADSVKGRFTISRDNAKNTVYLQRNRLKPEDTAVYYCAALYHWTYDYWGQGTQVTVSS", "polyreactivity (PSR sort gate)": "low polyreactivity"}
{"sequence": "QVQLVESGGGLVQAGGSLRLSCAATGSTFYHYAMGWYRQAPGKEREFVAAISTSGGRTYYADSVKGRFTISRDNAKNTVYLQMNSLKPEDTAVYYCAARPGSWYPSVPSYNYWGQGTQVTVSS", "polyreactivity (PSR sort gate)": "low polyreactivity"}
{"sequence": "QVQLVESGGGLVQAGGSLRLSCAATGSTSVHNAMGWYRQAPGKERELVDAITSDGSTNYADSVKGRFTISRDNAKNTVYLQMNSLKPEDTAVYFCGAAYWTRLRRMDYWGQGTQVTVSS", "polyreactivity (PSR sort gate)": "low polyreactivity"}
{"sequence": "QVQLVESGGGLVQAGGSLRLSCAATGSTYPRNDRGWYRQAPGKERELVAAISRGGSTNYADSVKGRFTISRDNAKNTVYLQMNSLKPEDTAVYFCAAQIFESAYGMDYWGQGTQVTVSS", "polyreactivity (PSR sort gate)": "low polyreactivity"}
{"sequence": "QVQLVESGGGLVQAGGSLRLSCAATGTFIIYAMGRYRQAPGKERELVATISTGGSTNYADSVKGRFTISRDNAKNTVYLQMNSLKPEDTAVYYCAAEWLYPHDGGYPRPMDYCGQGTQVTVSS", "polyreactivity (PSR sort gate)": "low polyreactivity"}
{"sequence": "QVQLVESGGGLVQAGGSLRLSCAATGYIFSHYAMGWYRQAPGKERELVAAITRSGGSTYYADSVKGRFTISRDNAKNTVYLQMNSLKPEVTAVYYCAASSLFYYWGQGTQVTVSS", "polyreactivity (PSR sort gate)": "high polyreactivity"}
{"sequence": "QVQLVESGGGLVQAGGSLRLSCAATGYTFFRNTMGWYRQAPGKESELVAVITKSGGSTYYADSVKWRFTISRDNAKNTVYLHMNSLIPEDTAVYYCNAVTALRNTEYNYWGQGTQVTVSS", "polyreactivity (PSR sort gate)": "high polyreactivity"}
{"sequence": "QVQLVESGGGLVQAGGSLRLSCAAYASTLANYALGWYRQSPGKERELVAAINSGGSTYYADSVKGRFTISRDNAKNTVYLQMNSLKPEDTAVYYCAARYASPRYKSKMDYWGQGTQVTVSS", "polyreactivity (PSR sort gate)": "high polyreactivity"}
{"sequence": "QVQLVESGGGLVQAGGSLRLSCAAYGFIFIGYTMGWYRQAPGKERELVATISLGDDSTYYADSVKGRFTISRDNAKNTVYLQMNSLKPEDTAVYYCAADQIDGTTSAYDYWGQGTQVTVSS", "polyreactivity (PSR sort gate)": "low polyreactivity"}
{"sequence": "QVQLVESGGGLVQAGGSLRLSCAAYGFIFRNYAMGWDRQAPGKERELVAAITWRGGSTYYADSVKGRFTISRDNAKNTVYLQMNSLKPEDTAVYYCAARGYRSREDYWGQGTQVTVSS", "polyreactivity (PSR sort gate)": "high polyreactivity"}
{"sequence": "QVQLVESGGGLVQAGGSLRLSCAAYGFIFVRYAMGWYRQAPGKERELVAAISWRGGSTYYADSVKGRFTISRDNAKNTVYLQMNSLKPEDNAVYYCAGAVYQRARYYWGQGTQVNVSS", "polyreactivity (PSR sort gate)": "high polyreactivity"}
{"sequence": "QVQLVESGGGLVQAGGSLRLSCAAYGFIYRYYAMGWNRQAPGKERELVPGISVSGGGTYYADSVKGRFTISRDNAKNTVNLQMNSLKPEDTAVYYCAAERTFLYWAYDYWGQGTQVNVSS", "polyreactivity (PSR sort gate)": "high polyreactivity"}
{"sequence": "QVQLVESGGGLVQAGGSLRLSCAAYGHFFAIYAMGWYSQAPGKEREFVAAITFTTRTYYADSVKGRFTISRDNAKNTVYLQMNSLKPEDTAVYYCAAGGYGEEYDYWGQGTQVTVSS", "polyreactivity (PSR sort gate)": "low polyreactivity"}
{"sequence": "QVQLVESGGGLVQAGGSLRLSCAAYGIIFYYYAMGWYRQAPGKERELVAAITGTGSRTYYADSVKGRFTISRDNAKNTVYLQMNSLKPEDTAVYYCNARSFATGSEVPARGYWGQGTQVTVSS", "polyreactivity (PSR sort gate)": "high polyreactivity"}
{"sequence": "QVQLVESGGGLVQAGGSLRLSCAAYGINFYKYAMVWSRQAPGQERELVASITKSAGSTNYADSDKGRFTISRDNAMNTVYLQMNSLKPEDTAVYYCAARRFTFNLFDYWGQGTQVTVSS", "polyreactivity (PSR sort gate)": "high polyreactivity"}
{"sequence": "QVQLVESGGGLVQAGGSLRLSCAAYGITLYKYAMGWYRQAPGKERELVASISRSGGSTYYADSVKGRFTISRDNAKNTVYLEMNSLKPEDTAVYYCAKAVWWSRPAQKSYLYYYWGHGTQVTVSS", "polyreactivity (PSR sort gate)": "high polyreactivity"}
{"sequence": "QVQLVESGGGLVQAGGSLRLSCAAYGNIFDGNAMGWYRQAPGKERELVAAITGRGGGTYYADSVKGRFTISRDNAKNTVYLLMNSLKPEDTAVYYCNKYYYRGGMDYWGQGTQVNVSS", "polyreactivity (PSR sort gate)": "high polyreactivity"}
{"sequence": "QVQLVESGGGLVQAGGSLRLSCAAYGPTFRYNTMGWNRQAPGKERELDARITWSGGSTYYADSVKGRFTISRDNAKNTVYLQMNSLKPEDTAVYYCAAVPILVYRWFQSYTGDYDYWGQGTHVTVSS", "polyreactivity (PSR sort gate)": "low polyreactivity"}
{"sequence": "QVQLVESGGGLVQAGGSLRLSCAAYGRIFAYYTMGWYRQAPGKERELVAAINQSGGSTYYADSVKGRFTISRDNAKNTVYFQMNSLKPEDTAVYYCAAKPYSLYARRYAYDYWGQGTQVTVSS", "polyreactivity (PSR sort gate)": "low polyreactivity"}
{"sequence": "QVQLVESGGGLVQAGGSLRLSCAAYGRIFFYYVMGWYRQAPGNERELVAGITRGGISNYADSVKGRFTISRDNAKNTVYLQMNSLKPEDTAVYYCAAAYYRDSDRRYNYWGQGTQVTVSS", "polyreactivity (PSR sort gate)": "high polyreactivity"}
{"sequence": "QVQLVESGGGLVQAGGSLRLSCAAYGRIFGGYAMGWYRQAPGKERELVAAISRRGGSTYYADSVKGRFTISRDNAKNTVYLQMNSLKPEDTAVYYCNAVLSVQARLTRVDYDYWGQGTEVTVSS", "polyreactivity (PSR sort gate)": "high polyreactivity"}
{"sequence": "QVQLVESGGGLVQAGGSLRLSCAAYGRIFPLNAMGWNRQAPGKERELVAAISYDGGTYYAYSVKGRFTISRDNAKNTFYLQMNSLKPEDTAVYYCANSRATWVGKHDYWGQGTQVTVSS", "polyreactivity (PSR sort gate)": "low polyreactivity"}
{"sequence": "QVQLVESGGGLVQAGGSLRLSCAAYGRIFRYNAMGWSTQAPGKERELVAAISRGGSSTYYADSVKGRFTISRDNAKNTVYLQMNSLQPEDTAVYYCNARSVVREFNNWGQGTQVTVSS", "polyreactivity (PSR sort gate)": "high polyreactivity"}
{"sequence": "QVQLVESGGGLVQAGGSLRLSCAAYGRIFRYYAMGWYRQAPGKERELVVAISRSGSSTYYADSVKGRFTISRDNAKNTVYLQMNSLKPEDTAFYYCAAKLADQTRGTTSDSWGQGTQVTVSS", "polyreactivity (PSR sort gate)": "high polyreactivity"}
{"sequence": "QVQLVESGGGLVQAGGSLRLSCAAYGRTFFSYTMGWYRQAPGKERELVASITWSGGSTYYADSVKGRFTISRDNAKNTVYLQMNSLKPEDTAVYYCAADEKLYITGYDYWGQGTQVNVSS", "polyreactivity (PSR sort gate)": "low polyreactivity"}
{"sequence": "QVQLVESGGGLVQAGGSLRLSCAAYGRTFRIYAMGWYRQAPGKERELVATITWRAGSTYYADSVKGRFTISRDNAKYTVYLQMNSLKPEDTAVYYCAADVSAYSGGYWLDYWGQGTQVTVSS", "polyreactivity (PSR sort gate)": "high polyreactivity"}
{"sequence": "QVQLVESGGGLVQAGGSLRLSCAAYGRTFRKNAMGWYRQAPVKERELVASMSKNGAGTYYADSVKGRFTISRDTAKNTVYLQMNSLKPEDTAVYYCAKLPNLPGDYWGQGTQVTVSS", "polyreactivity (PSR sort gate)": "low polyreactivity"}
{"sequence": "QVQLVESGGGLVQAGGSLRLSCAAYGRTFWPNAMGWYRQAPGKERELVAAFSRRSGSTYYADSVKGRFTISRDNAKNTVYLQMNSLKPEDTAVYYCAAKYRAHGNHSWGQGTQVTVSS", "polyreactivity (PSR sort gate)": "high polyreactivity"}
{"sequence": "QVQLVESGGGLVQAGGSLRLSCAAYGSIFFGNVMGWYRQAPGKARELVAVISWSGGTTYYADSVKGRFTISRDNAKNTVYLQMNSLKPEDTAVYYCNARYLRRGDYWGQGTQVTVSS", "polyreactivity (PSR sort gate)": "low polyreactivity"}
{"sequence": "QVQLVESGGGLVQAGGSLRLSCAAYGSIFLYNALGGYIQAPGKEMELVADITSAGRTYYADSVKGRFTISRDNAKNTVYLQMNSLKPEDTAVYYCNKDYQYHFSWYGYWGQGTQVTVSS", "polyreactivity (PSR sort gate)": "low polyreactivity"}
{"sequence": "QVQLVESGGGLVQAGGSLRLSCAAYGSIFRLYAIGWSRQAPGKDRELVAAISSVGRTYYAYSVKGRFTISRDNAKNTVYLQMNSLKPEDSAVYYCAARPYKFARYDYWGQGTQVTVSS", "polyreactivity (PSR sort gate)": "high polyreactivity"}
{"sequence": "QVQLVESGGGLVQAGGSLRLSCAAYGSIFRSYAMGWYRQAPGKERELVAAISSRYGSTYYADSVKGRFTISRDNAKNTVYLQMNSLKPEDTAVYYCGSQHRHSYGYWGQGTQVTVSS", "polyreactivity (PSR sort gate)": "high polyreactivity"}
{"sequence": "QVQLVESGGGLVQAGGSLRLSCAAYGSIFSGYTMGCYRQAPGKERELVAAITQRGTRTYYADSVKGRFTISRDNAKNTVYLQMNSLKPEDTAVYYCAAVRSYYSNRGYDYWGQGTQVTVSS", "polyreactivity (PSR sort gate)": "high polyreactivity"}
{"sequence": "QVQLVESGGGLVQAGGSLRLSCAAYGSIFTRNAMGWYRQAPGKERELVATITSNDGSTNYADSVKGRFTISRDNAKNTVYLQMISLKPEDTAVYYCNRSYGVYSEFDYWGQGTQVTVSS", "polyreactivity (PSR sort gate)": "low polyreactivity"}
{"sequence": "QVQLVESGGGLVQAGGSLRLSCAAYGSILARYAMGWYRQAPGKERELVAAISYNGGSTYYADSVKGRFTISRDNAKNTVYLQMNSLKPEDTAVYYCAKAYDTTLTYNFWGQGTQVTVSS", "polyreactivity (PSR sort gate)": "low polyreactivity"}
